Values joined by “and” are separate entries in the source; they are usually repeats but may differ in a detail not shown here. Equal values may be shown once.
Key:
[1] = Thermal denaturation monitored by far UV CD ellipticity; format: physicochemical; settings: for Change in cooperativity (HD) / Stabilisation (increase in Tm): in the presence of 4 mM Galα(1,3)Galβ1-OMe, 208 nm
Protocol: (§1) Two types of experiments were performed: firstly, the near UV circular dichroism (CD) spectra of the scFvs in the absence and presence of 4 mM of both disaccharides have been compared. Secondly, the effect of the disaccharides on the thermal stability of the scFvs has been studied.
Samples were diluted in NaPi (10 mM)-NaCl (150 mM) pH 7.2 and either concentrated by ultrafiltration twice (for small amounts) or exhaustively dialyzed. CD spectra were acquired at 20° C. in a J-810 spectropolarimeter, equipped with a Peltier temperature control system, using a bandwidth of 1 nm, a scan rate of 20 nm/min and a response time of 4 s, collecting data every 0.2 nm and 3 accumulations for each spectrum. Near-UV spectra were registered at around 1.0 mg ml^−1 protein concentration in 1-cm path-length cells while far-UV spectra were recorded in 0.1 cm path-length quartz cells at a protein concentration of around 0.2 mg ml^−1. For all CD spectra, the corresponding buffer baseline was subtracted. […] Ellipticity changes were collected every 0.2° C. and spectra were collected every 10° C. The thermal denaturation profiles were fitted to a sigmoidal function using the equation:—
where Θ(T) represents the ellipticity at temperature T (Kelvin), ΘN the ellipticity of the native protein, n the number of transitions, ΔΘ1 the ellipticity increment of transition i, R the gas constant and Tmi and HDi the temperature at the transition midpoint (melting temperature) and the parameter which describes the cooperativity (slope) of the corresponding transition, respectively.
In the second set of experiments, the thermal stability of the scFvs in the absence and presence of the disaccharides was investigated. With this type of experiment, we were able to get: 1) the far UV CD spectra at increasing temperatures, which gave information on changes in the secondary structure of the proteins upon heating and 2) the profile of the change in ellipticity at a certain wavelength, also with increasing temperatures, that allowed the calculation of the temperature of transition (Tm). Direct comparison of the Tm in the absence and presence of sugar provided information about the effect of the sugar on the scFvs, a thermal stabilisation (i.e. an increase in the Tm in the presence of the sugar) being indicative of interaction.

[2] = scFv-based competitive ELISA, free Gal-α-(1→3)-Gal as standard, immobilized Gal-α-(1→3)-Gal-BSA; format: binding; settings: for ED50: free Gal-α-(1→3)-Gal disaccharide standard, plates coated with Gal-α-(1→3)-Gal-BSA 10 μg/ml, FIG. 6
Protocol: FIG. 6: Standard curves for competitive ELISA given by scFv clones G12, A4, and A11. Plates were coated with immobilized Gal-α-(1→3)-Gal-BSA [10 μg/ml] and incubated with 2.5 μg/ml of the scFvs in the presence of an increasing concentrations of free Gal-α-(1→3)-Gal. The error bars indicate the standard error of the mean of triplicate determinations. Each scFv was evaluated in a competitive ELISA format using free Gal-α-(1,3)-Gal as standard. Microtitre plate wells were coated and blocked as previously described. Standard solutions were prepared in PBS (pH 7.2), ranging in concentration from 2 μg/ml (5.84 μM) to 20 mg/ml (58.4 mM). For the assay, 50 μl of each standard and buffer blank were added to designated wells in triplicate, followed by 50 μl of a sub-saturating concentration (1 μg/ml) of the appropriate scFv, giving a final standard concentration in the assay of 1 μg/ml (2.92 μM) to 10 mg/ml (29.2 mM). The plate was incubated for 1 hour at 37° C. with shaking After washing, bound scFv was detected as previously described. The ratios of the OD for each standard versus the OD given by the blank (B/Bo) were plotted versus standard concentration and standard curve plotted using SigmaPlot (v11, Systat Software Inc). The detection limits were determined as the concentration corresponding to the mean response for zero standard minus three times the standard deviation (SD). Inhibition of scFv by a panel of free sugars. scFv binding to Gal-α-(1→3)-Gal-BSA was determined against a panel of 21 free form sugars; D-Cellibiose, Melibiose, D-Raffinose, Lactulose, Palatinose, β-Gentibiose, D+ Trehalose, D+ Turanose, L− Fructose, D+ Glucose, Sucrose, Galacto-N-biose, 4β-Galactobiose, gal-α(1-3)-gal-β-(1-4)-gal, gal-α(1-3)-gal-β-(1-4)-glc, gal-α(1-3)-gal-β-(1-4)-gal-all-3)-gal, Laminarbiose, β1-4-D-Xylobiose, N-Acetyl-D-glucoseamine (GlcNAc), Galactose, N-Acetyl-D-lactosamine (LacNAc), (sourced from Sigma Aldrich and Dextra, UK). Inhibitions were performed by serial dilutions of free sugars and a sub-saturating concentration scFv added to each dilution and pre-incubated for 60 minutes at 37° C., prior to performing ELISA against Gal-α-(1→3)-Gal-BSA as used throughout. The percent binding of the scFv was plotted against the […], and the 50% effective dose determined (ED50; dose of free sugar causing 50% displacement of the scFv).

[3] = Near UV circular dichroism interaction study with disaccharides; format: binding; settings: pH 7.2, 20° C.
Protocol: The scFvs A4, A11 and G12 were used to check their interaction with Galα(1,3)Galβ1-OMe (Carbosynth) and with melibiose, the latter as negative control.
as §1
Samples were diluted in NaPi (10 mM)-NaCl (150 mM) pH 7.2 and either concentrated by ultrafiltration twice (for small amounts) or exhaustively dialyzed. CD spectra were acquired at 20° C. in a J-810 spectropolarimeter, equipped with a Peltier temperature control system, using a bandwidth of 1 nm, a scan rate of 20 nm/min and a response time of 4 s, collecting data every 0.2 nm and 3 accumulations for each spectrum. Near-UV spectra were registered at around 1.0 mg ml^−1 protein concentration in 1-cm path-length cells while far-UV spectra were recorded in 0.1 cm path-length quartz cells at a protein concentration of around 0.2 mg ml^−1. For all CD spectra, the corresponding buffer baseline was subtracted. Thermal stability was evaluated by measuring ellipticity changes at 208 nm while increasing temperature from 20 to 90° C., with a constant rate of 40° C./h. Ellipticity changes were collected every 0.2° C. and spectra were collected every 10° C. The thermal denaturation profiles were fitted to a sigmoidal function using the equation:—

[4] = NGC microarray specificity analysis (over 50 structures); format: binding; settings: FIG. 8
Description: FIG. 8: Comparison of the specificity of selected scFv fragments A4, A11 and G12 against a panel of related NGCs compared directly to the specificity binding pattern of the lectin GS-1-B4, considered as highly specific for α-Gal residues.
The spectacular specificity of the scFvs has also been determined by analysis on an NGC microarray containing over 50 different structures. […] ScFv-based competitive ELISA. Competitive ELISAs were established with each of the three scFvs examined using as standard the free Gal-α-(1→3)-Gal disaccharide within the concentration range 0.001 to 10000 μg/ml (2.93 nM to 29.3 mM). […] A panel of 21 related sugars were tested in the scFv-based competitive assays (Table 1). […] All three scFvs were more reactive to the disaccharide than Gal-α-(1,3)-Gal-containing trisaccharides, as shown by lower inhibitory activity of the trisaccharides and supporting the results obtained in the direct ELISA.

[5] = +4 mM Galα(1,3)Galβ1-OMe, λ 208
[6] = +4 mM Galα(1,3)Galβ1-OMe, λ 218
[7] = 4 mM melibiose (negative control)

Row | Molecule | HD [1, 5] [kcal/mol] | Tm [1, 5] [°C] | HD ([1]; Pure scFv, λ 208) [kcal/mol] | Tm ([1]; Pure scFv, λ 208) [°C] | Change in cooperativity (HD) [1] | Stabilisation (increase in Tm) [1] [°C] | Change of near UV CD spectrum ([3]; 4 mM Galα(1,3)Galβ1-OMe) | Change of near UV CD spectrum [3, 7] | Specificity for the Gal-α-(1→3)-Gal epitope compared with GS-1-B4 [4] | other results
1 | scFv G12: chicken anti-Gal-α-(1→3)-Gal single chain antibody fragment, Seq Id No. 3; clone F1 has the same sequence (protein, Synthetic protein sequence for scFv-G12 antibody fragment for detecting non-human Gal-alpha(1-3)-Gal) scFv: QAALTQPSSVSANPGETVKITCSGGSYHYGWYQQKSPGSAPVTVIYSNNQRPSGIPSRFSGSTSDSTGTLTITGVQADDEAVYFCGSYDSSNTYAGIFGAGTTLTVLGQSSRSSSGGGSSGGGGSAVTLDESGGGFQTPGGALSLVCKASGFTFSSYSMQWVRQAPGKGLEFVAGIGNSDRYTYFGPAVKGRATISRDNGQSTLRLQLNNLRAEDTATYFCARSGDSGNGCTHPWCSADNINAWGHGTEVIVSSTSGQAGQ | 71 ± 5 | 73.5 ± 0.3 | 64 ± 4 | 64.7 ± 0.2 | +6.8 Kcal/mol | 8.8 | a clear change was detected | did not cause any significant changes | much higher specificity | HD [1, 6]: 137 ± 24 kcal/mol; Tm [1, 6]: 74.3 ± 0.4 °C; HD ([1]; +4 mM melibiose, λ 218): 116 ± 16 kcal/mol; Tm ([1]; +4 mM melibiose, λ 218): 66.5 ± 0.3 °C; HD ([1]; Pure scFv, λ 218): 116 ± 21 kcal/mol; Tm ([1]; Pure scFv, λ 218): 66.4 ± 0.4 °C; ED50 ([2]; listed as G12): 158 μg/ml and 0.46 mM
2 | scFv A4: chicken anti-Gal-α-(1→3)-Gal single chain antibody fragment, Seq Id No. 2 (protein, Synthetic protein sequence for scFv-A4 antibody fragment for detecting non-human Gal-alpha(1-3)-Gal) scFv: QAALTQPSSVSTNPGGTVKITCSGGNGNYGWYQQKSPGSAPVTVIYSNNKRPSDIPSRFSGSKSGSTATLTITGVQVDDEAVYFCGAYDNTYVGVFGAGTTLTVLGQSSRSSSGGGSSGGGGSAVTLDESGGGLQTPGGGLSLVCKASGFTFSSYSMQWVRQTPGKGLEFVAGIGYSDSYTYFGPAVKGRATISRDNGQNTVRLQLNNLRAEDTATYYCARSADTIYGCTHPWCSADNIDAWGHGTEVIVSSTSGQAGQ | 52 ± 3 | 74.8 ± 0.3 | 57 ± 3 | 64.6 ± 0.2 | ~4.7 kcal/mol |  | molar ellipticity per residue in general decreased | remained unchanged | much higher specificity | ED50, composite standard curve ([2]; composite curve from 9 independent runs, FIG. 7, listed as A4): 327 μg/ml and 0.95 mM; ED50 ([2]; listed as A4): 311 μg/ml and 0.91 mM
3 | scFv A11: chicken anti-Gal-α-(1→3)-Gal single chain antibody fragment, Seq Id No. 4; clone D9 has the same sequence (protein, Synthetic protein sequence forscFv-A11 antibody fragment for detecting non-human Gal-alpha(1-3)-Gal) scFv: QAALTQPSSVSANPGETVKITCSGGGSYGGSYYYGWYQQKSPGSAPVTVIYSNDNRPSDIPSRFSGSTSGSTSTLTITGVQVDDEAVYYCGTYDSSYVGIFGAGTALTVLGQSSRSSGGGSSGGGGSAVTLDESGGGLQTPGGGLSLVCKASGFTFSSYSMQWVRQTPGKGLEFVAGIGYSDSYTYFGPAVKGRATISRDNGQNTVRLQLNNLRAEDTATYYCARSADTIYGCTHPWCSADNIDAWGHGTEVIVSSTSGQAGQ | 95 ± 6 | 69.0 ± 0.2 | 134 ± 7 | 61.3 ± 0.1 | ~38.5 kcal/mol | 7.7 | No significant changes were observed | No significant changes were observed | much higher specificity | HD ([1]; +4 mM melibiose, λ 208): 141 ± 7 kcal/mol; Tm ([1]; +4 mM melibiose, λ 208): 61.1 ± 0.1 °C; ED50 ([2]; listed as A11): 1225 μg/ml and 3.58 mM

— patent US10078082B2, “Detection of free and protein-bound non-human gal-alpha(1-3)-gal epitope” (National University of Ireland, Galway, priority 2012, dated 2018)
